Article PMC10286459, “The development of an anti-cancer peptide M1-21 targeting transcription factor FOXM1” (Cell & Bioscience, 2023)

What was measured:
[1] = target: endogenous FOXM1 protein (human (endogenous in 293T and MDA-MB-231)) (UniProt Q08050)
[2] = target: endogenous FOXM1 protein (human (endogenous in 293T and MDA-MB-231)) (UniProt Q08050); remark: listed apart in the source
[3] = target: GFP-FOXM1(688-748) (human); assay: MST; GFP-fused FOXM1 protein as the fluorescent partner, synthesized peptide varied from 0.030 to 1000 µM; PBST (1×PBS 0.01 M, 0.05% Tween-20); 25 °C; Monolith NT.115, LED power 60%, medium MST power
[4] = target: GFP-FOXM1 (human) (UniProt Q08050); assay: as above
GFP-FOXM1 (human), sequence (Q08050 other isoform, or with tags, fused parts or gaps): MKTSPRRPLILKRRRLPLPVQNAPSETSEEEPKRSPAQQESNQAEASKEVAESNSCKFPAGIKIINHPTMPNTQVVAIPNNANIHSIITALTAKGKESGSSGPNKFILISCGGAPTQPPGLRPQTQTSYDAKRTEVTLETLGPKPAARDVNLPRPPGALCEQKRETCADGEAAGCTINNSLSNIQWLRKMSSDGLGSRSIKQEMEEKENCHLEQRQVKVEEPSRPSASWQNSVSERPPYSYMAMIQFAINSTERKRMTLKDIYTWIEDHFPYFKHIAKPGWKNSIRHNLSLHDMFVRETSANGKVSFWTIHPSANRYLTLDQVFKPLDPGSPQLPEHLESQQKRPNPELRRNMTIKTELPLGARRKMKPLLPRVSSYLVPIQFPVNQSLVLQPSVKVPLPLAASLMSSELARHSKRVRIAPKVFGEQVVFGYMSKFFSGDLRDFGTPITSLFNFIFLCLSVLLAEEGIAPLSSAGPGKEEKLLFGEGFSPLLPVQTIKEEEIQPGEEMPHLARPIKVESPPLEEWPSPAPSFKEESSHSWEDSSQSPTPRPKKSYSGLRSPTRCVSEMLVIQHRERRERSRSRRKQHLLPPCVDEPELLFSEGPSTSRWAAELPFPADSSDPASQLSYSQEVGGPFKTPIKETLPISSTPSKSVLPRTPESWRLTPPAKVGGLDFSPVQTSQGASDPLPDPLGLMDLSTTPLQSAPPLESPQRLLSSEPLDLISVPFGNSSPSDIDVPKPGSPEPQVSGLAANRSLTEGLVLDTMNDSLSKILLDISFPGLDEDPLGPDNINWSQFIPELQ

endogenous FOXM1 protein (human (endogenous in 293T and MDA-MB-231)), sequence (Q08050 whole entry, the tested form may be a part): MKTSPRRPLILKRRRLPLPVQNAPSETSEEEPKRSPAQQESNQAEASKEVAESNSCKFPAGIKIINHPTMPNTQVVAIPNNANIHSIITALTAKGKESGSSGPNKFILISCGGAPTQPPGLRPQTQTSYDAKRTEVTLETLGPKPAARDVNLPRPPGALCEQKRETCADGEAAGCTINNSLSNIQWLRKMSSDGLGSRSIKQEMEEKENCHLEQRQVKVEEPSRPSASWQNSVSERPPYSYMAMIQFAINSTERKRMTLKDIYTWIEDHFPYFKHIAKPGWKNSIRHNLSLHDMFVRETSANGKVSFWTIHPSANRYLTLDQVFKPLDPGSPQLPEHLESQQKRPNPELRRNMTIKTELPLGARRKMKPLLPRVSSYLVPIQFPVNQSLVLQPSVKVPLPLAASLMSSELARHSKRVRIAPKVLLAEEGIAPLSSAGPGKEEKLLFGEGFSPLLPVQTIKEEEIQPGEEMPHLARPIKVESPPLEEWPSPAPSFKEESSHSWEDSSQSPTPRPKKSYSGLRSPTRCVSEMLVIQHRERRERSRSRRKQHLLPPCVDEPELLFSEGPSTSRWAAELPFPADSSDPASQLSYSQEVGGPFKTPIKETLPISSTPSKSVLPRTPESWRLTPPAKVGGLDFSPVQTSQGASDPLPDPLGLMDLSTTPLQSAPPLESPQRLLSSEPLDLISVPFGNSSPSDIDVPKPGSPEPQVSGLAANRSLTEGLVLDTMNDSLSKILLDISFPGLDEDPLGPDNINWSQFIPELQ

Substance | IC50 of cell viability, MDA-MB-231 cells, 48 h (trypan blue) [1] | IC50 of cell viability, MDA-MB-231 cells, 48 h (trypan blue; Fig. 2C) [2] | Kd [3] | Kd [4]
TAT-106-126 (from UniProt Q08050 106-126) (peptide) | 53.4 µM | 54.3 µM | 3.9 µM | 7.1 µM
TAT-101-121 (from UniProt Q08050 101-121) (peptide) | – | – | 5.5 µM | –
TAT-96-116 (from UniProt Q08050 96-116) (peptide) | – | – | 2.8 µM | –
